# According to the supplement of paper PMC11908140:
# B1: library; numbered along this chain (parent)
# chain: MRKPRAAVGSGHRKQAASQEGRQKHAKNNSQAKPSACDGLARQPEEVVLQASVSSYHLFRDVAEVTAFRGSLLSWYDQEKRDLPWRRRAEDEMDLDRRAYAVWVSEVMLQQTQVATVINYYTGWMQKWPTLQDLASASLEEVNQLWAGLGYYSRGRRLQEGARKVVEELGGHMPRTAETLQQLLPGVGRYTAGAIASIAFGQATGVVDGNVARVLCRVRAIGADPSSTLVSQQLWGLAQQLVDPARPGDFNQAAMELGATVCTPQRPLCSQCPVESLCRARQRVEQEQLLASGSLSGSPDVEECAPNTGQCHLCLPPSEPWDQTLGVVNFPRKASRKPPREESSATCVLEQPGALGAQILLVQRPNSGLLAGLWEFPSVTWEPSEQLQRKALLQELQRWAGPLPATHLRHLGEVVHTFSHIKLTYQVYGLALEGQTPVTTVPPGARWLTQEEFHTAAVSTAMKKVFRVYQGQQPGTCMGSKRSQVSSPCSRKKPRMGQQVLDNFFRSHISTDAHSLNSAAQ
# Variants of: B1
# Test: 8OG:A repair function score (normalized; synonymous = 0, nonsense = -1) (normalized log-likelihood score); higher = more repair activity (WT-like)
# Conditions: with 8OG:A DNA repair reporter (GFP) in HEK-293 MUTYH KO cells
# Procedure, shortened: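 GFP+ (repair) and GFP− bins of viable mCherry+ cells were collected at 72 h from MUTYH knockout HEK-293 cells bearing lentiviral MUTYH cDNA NNN codon-scan libraries in 10 pg/ml doxycycline, co-transfected with an 8OG:A GFP repair reporter and mCherry. Tile amplicons were sequenced, and per-tile Rosace fitness scores were normalized to a repair function score anchored on synonymous and nonsense distributions. Synonymous medians were set to 0 and nonsense to -1, with variants under 300 counts per million at the start removed.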
# 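Further: cells sorted at 72 h after reporter transfection.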
row,Variant,8OG:A repair function score
1,K422D,-0.458
2,G209T,-0.207
3,Q282T,-0.0623
4,V117H,-1.24
5,I509Q,0.0194
6,W75D,-3.7
7,M173L,-0.00175
8,Q288W,-0.0268
9,E287P,-0.121
10,R69A,-1.46
11,Y121L,-0.993
12,T324E,-0.099
13,G123I,0.0985
14,G372Q,-0.291
15,E90D,0.000961
16,N251A,-0.847
17,L396F,-0.431
18,L49S,0.027
19,A520E,0.0123
20,F250D,-1.01
21,K337E,-0.0878
22,I198T,-0.36
23,S138A,-0.0766
24,S515M,-0.00894

row,Variant,8OG:A repair function score
1,C311I,-0.59
2,K3H,0.0273
3,K337L,-0.136
4,G479T,-0.0258
5,F330H,-0.37
6,L360M,-0.352
7,S343N,-0.0331
8,E319D,-0.0309
9,V166Y,-0.184
10,S74L,-0.0187
11,L229A,0.087
12,S483L,0.00323
13,Q265E,-0.243
14,Q144I,0.051
15,A67G,-0.0739
16,D82W,-0.00177
17,A63R,0.00494
18,S298D,-0.0341
19,Y190V,-0.566
20,S515Q,-0.00958
21,F453D,-1.22
22,L393T,-0.383
23,K333T,-0.137
24,A445M,-0.292

row,Variant,8OG:A repair function score
1,A212F,-0.426
2,P44L,-0.133
3,Q282G,-0.0596
4,R281P,-0.443
5,S227G,-0.0911
6,S384D,0.201
7,R2Q,-0.0466
8,A445R,-0.53
9,W75A,-1.3
10,V261T,-0.0821
11,P267L,-1.03
12,S231D,-0.132
13,L448D,-0.727
14,S480K,0.0154
15,D61Q,-0.0778
16,A431L,0.0682
17,L268A,-0.000124
18,V104K,-0.731
19,W447C,-1.09
20,L183H,0.0988
21,V261E,-0.804
22,L149G,-0.743
23,S292R,-0.0254
24,D77N,-0.122

row,Variant,8OG:A repair function score
1,V362Y,-0.434
2,L411H,0.0947
3,G171M,-0.536
4,S483D,0.0208
5,V441W,-0.278
6,W146P,-1.14
7,D502G,-0.00456
8,S487K,0.0147
9,P317K,-0.197
10,L403T,0.0396
11,A253V,-1
12,S136P,-0.137
13,F505D,0.0229
14,A220Q,-0.691
15,A199P,-1.07
16,P338R,0.00053
17,P185Y,-0.363
18,R42A,0.112
19,D322N,-0.00231
20,P317E,-0.0108
21,S55E,-0.00704
22,K164A,-0.133
23,P247S,-0.584
24,S480H,0.0192

row,Variant,8OG:A repair function score
1,Q473F,0.00513
2,I509K,-0.00442
3,L516D,-0.0107
4,L369T,0.0329
5,G70F,-0.115
6,G401T,-0.428
7,R246F,-0.68
8,S74D,-0.132
9,G70Q,-0.528
10,L139C,-0.0786
11,A461H,-0.545
12,S483T,-0.0473
13,V414G,-0.649
14,E46S,-0.0996
15,E45H,0.0965
16,E385N,-0.0672
17,Q363Y,-0.408
18,V348H,-1.31
19,P442C,-0.141
20,G222W,-0.349
21,Q358C,0.0229
22,C347G,-0.229
23,A456T,-0.365
24,S105L,-0.798

row,Variant,8OG:A repair function score
1,R364T,-0.411
2,Y100E,-1.42
3,G479W,-0.0628
4,Q232F,-0.308
5,G150Q,-1.58
6,V348C,-0.104
7,W124N,-1.01
8,S105D,-0.841
9,L315R,-0.0162
10,P494K,-0.0663
11,M478W,0.0205
12,V165Y,-1.15
13,A461V,-0.124
14,P185L,-0.344
15,P316D,-0.0567
16,D77I,-0.0954
17,G412Y,-0.721
18,S54G,0.00441
19,W374R,-1.03
20,T449K,-0.144
21,Q78D,-0.00768
22,E451H,0.0926
23,R87H,-0.0676
24,R340D,-0.385

row,Variant,8OG:A repair function score
1,R157M,-0.0764
2,C272E,-1.29
3,A291H,-0.0755
4,S486G,0.0224
5,P402D,0.516
6,R189E,-0.385
7,A259M,-0.739
8,E256H,-1.34
9,L83W,-0.827
10,R246H,-0.449
11,S270F,-0.0287
12,A223F,-0.516
13,A89Y,-0.00929
14,E140R,-0.124
15,V427P,-1.13
16,P365D,0.00966
17,E167P,-0.768
18,Q239C,-0.184
19,L83T,-0.104
20,V53S,0.00307
21,S378K,-0.24
22,P320G,0.00385
23,L349A,-0.352
